Kd, koff and kon data for 13 molecules are collected here from article PMC10663500, “High-throughput analysis system of interaction kinetics for data-driven antibody design” (Scientific Reports, 2023).

Test [1] deals with T1, mouse programmed cell death protein 1 Fc fusion protein (mPD-1-Fc), mPD-1 C60S (aa 25-167) (Mus musculus, UniProt Q02242, stabilised).
T1 construct: not cleaved; source: Expi293F, purified (Protein A, SEC; dimeric fraction); not shown: Fc (human), C-terminal, kept
In words: SPR; Carterra LSA; Fab from the ammonium sulfate precipitate of the culture supernatant immobilised on a NiHC200M chip; hPD-1 (1-1024 nM) or mPD-1-Fc (4-1024 nM) as analyte, fourfold dilution series, no regeneration; HBS-EP pH 7.4, 25 °C; medians over the spots of a construct, KD = koff/kon. As to conditions: one partner purified. An outline of the steps: (§1)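 Fabs from Brevibacillus culture supernatants were ammonium sulfate-precipitated, redissolved in HBS-EP and captured in duplicate on a NiHC200M chip (Carterra LSA, 25 °C). Human PD-1 (1–1024 nM) or mouse PD-1-Fc (4–1024 nM) flowed as fourfold series without regeneration, with 10 min association and 5 min dissociation; unconfirmed binders were set to kon 10^3 […], koff 10^−2 s^−1. Rates came from kdka model fits (slow- or fast-dissociation settings, best fit); KD is koff/kon from per-construct medians.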
(In SPR one partner is held on a chip, and binding of the other changes the refractive index at the surface.)

The target of test [2] is T2, human programmed cell death protein 1 (hPD-1) C93S (aa 24-167) (Homo sapiens, UniProt Q15116, C93S).
T2 construct: made as a fusion with a TEV site and human Fc; the Fc was cut off with TEV protease; source: Expi293F, purified (Protein A, TEV cleavage of Fc, SEC; monomer fractions); not shown: Fc (human), C-terminal, cleaved
T2 sequence (Q15116 24-167 C93S): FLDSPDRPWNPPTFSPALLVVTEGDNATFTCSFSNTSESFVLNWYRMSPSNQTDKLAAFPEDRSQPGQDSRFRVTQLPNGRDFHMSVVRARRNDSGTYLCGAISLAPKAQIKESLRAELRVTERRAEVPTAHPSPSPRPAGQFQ
Described as above. Conditions: one partner purified. The gist of the method: as §1

Usually Kd stands for a measure of binding affinity in units of concentration. A lower Kd goes with higher affinity. Usually koff stands for a measure of how fast the partners let go of each other. Read a high koff as a short-lived complex. One may read the kon as a measure of how fast the partners come together. A higher kon goes with faster complex formation.

B1: toripalimab Fab L.V99K (Fab, V domains shown)
VH: QGQLVQSGAEVKKPGASVKVSCKASGYTFTDYEMHWVRQAPIHGLEWIGVIESETGGTAYNQKFKGRVTITADKSTSTAYMELSSLRSEDTAVYYCAREGITTVATTYYWYFDVWGQGTTVTVSS
VL: DVVMTQSPLSLPVTLGQPASISCRSSQSIVHSNGNTYLEWYLQKPGQSPQLLIYKVSNRFSGVPDRFSGSGSGTDFTLKISRVEAEDVGVYYCFQGSHKPLTFGQGTKLEIK
notes: as the heavy chain of Sm3; light chain of Sm3 with this change; numbers count from the chain's first residue; source: Brevibacillus, culture supernatant (ammonium sulfate precipitate); not shown: 6xHis, C-terminal, kept; 6xHN, C-terminal, kept
In test [1], B1 returned a Kd of 285 nM, a koff of 0.00439 s⁻¹ and a kon of 15400 M⁻¹ s⁻¹. In test [2], the Kd came out at 30.7 nM, the off-rate constant (koff) worked out at 0.000131 s⁻¹ and the kon worked out at 4260 M⁻¹ s⁻¹.

B2: toripalimab Fab H.E52Y (Fab, V domains shown)
VH: QGQLVQSGAEVKKPGASVKVSCKASGYTFTDYEMHWVRQAPIHGLEWIGVIYSETGGTAYNQKFKGRVTITADKSTSTAYMELSSLRSEDTAVYYCAREGITTVATTYYWYFDVWGQGTTVTVSS
VL: DVVMTQSPLSLPVTLGQPASISCRSSQSIVHSNGNTYLEWYLQKPGQSPQLLIYKVSNRFSGVPDRFSGSGSGTDFTLKISRVEAEDVGVYYCFQGSHVPLTFGQGTKLEIK
notes: heavy chain of Sm3 with this change; numbers count from the chain's first residue; as the light chain of Sm3; source: Brevibacillus, culture supernatant (ammonium sulfate precipitate); not shown: 6xHis, C-terminal, kept; 6xHN, C-terminal, kept
On to B2, for which, in test [1], binding was put at a Kd of 600 nM, the koff was 0.149 s⁻¹ and the association rate constant (kon) turned out to be 247000 M⁻¹ s⁻¹. In test [2], this molecule yielded a Kd of 49.4 nM, a koff of 0.000629 s⁻¹ and a kon of 12700 M⁻¹ s⁻¹.

B3: toripalimab Fab L.V99W (Fab, V domains shown)
VH: QGQLVQSGAEVKKPGASVKVSCKASGYTFTDYEMHWVRQAPIHGLEWIGVIESETGGTAYNQKFKGRVTITADKSTSTAYMELSSLRSEDTAVYYCAREGITTVATTYYWYFDVWGQGTTVTVSS
VL: DVVMTQSPLSLPVTLGQPASISCRSSQSIVHSNGNTYLEWYLQKPGQSPQLLIYKVSNRFSGVPDRFSGSGSGTDFTLKISRVEAEDVGVYYCFQGSHWPLTFGQGTKLEIK
notes: as for B1
On to B3, for which, in test [1], the Kd is 254 nM, the koff came to 0.0065 s⁻¹ and the kon turned out to be 25600 M⁻¹ s⁻¹. In test [2], this molecule registered a dissociation constant Kd of 45.3 nM, a koff of 0.000522 s⁻¹ and a kon of 11500 M⁻¹ s⁻¹.

B4: toripalimab Fab L.V99N (Fab, V domains shown)
VH: QGQLVQSGAEVKKPGASVKVSCKASGYTFTDYEMHWVRQAPIHGLEWIGVIESETGGTAYNQKFKGRVTITADKSTSTAYMELSSLRSEDTAVYYCAREGITTVATTYYWYFDVWGQGTTVTVSS
VL: DVVMTQSPLSLPVTLGQPASISCRSSQSIVHSNGNTYLEWYLQKPGQSPQLLIYKVSNRFSGVPDRFSGSGSGTDFTLKISRVEAEDVGVYYCFQGSHNPLTFGQGTKLEIK
notes: as for B1
In the case of B4, in test [1], the Kd was 169 nM, the koff was determined as 0.00665 s⁻¹ and the kon was 39400 M⁻¹ s⁻¹. In test [2], this molecule registered a Kd of 3.03 nM, a koff of 5.61e-05 s⁻¹ and a kon of 18500 M⁻¹ s⁻¹.

B5: toripalimab Fab L.V99L (Fab, V domains shown)
VH: QGQLVQSGAEVKKPGASVKVSCKASGYTFTDYEMHWVRQAPIHGLEWIGVIESETGGTAYNQKFKGRVTITADKSTSTAYMELSSLRSEDTAVYYCAREGITTVATTYYWYFDVWGQGTTVTVSS
VL: DVVMTQSPLSLPVTLGQPASISCRSSQSIVHSNGNTYLEWYLQKPGQSPQLLIYKVSNRFSGVPDRFSGSGSGTDFTLKISRVEAEDVGVYYCFQGSHLPLTFGQGTKLEIK
notes: as for B1
In test [1], B5 came in with a Kd of 407 nM, a koff of 0.00629 s⁻¹ and a kon of 15500 M⁻¹ s⁻¹. In test [2], the Kd is < 1.43 nM, the koff is < 1e-05 s⁻¹ and the kon amounted to 7020 M⁻¹ s⁻¹.

B6: toripalimab Fab L.P100D (Fab, V domains shown)
VH: QGQLVQSGAEVKKPGASVKVSCKASGYTFTDYEMHWVRQAPIHGLEWIGVIESETGGTAYNQKFKGRVTITADKSTSTAYMELSSLRSEDTAVYYCAREGITTVATTYYWYFDVWGQGTTVTVSS
VL: DVVMTQSPLSLPVTLGQPASISCRSSQSIVHSNGNTYLEWYLQKPGQSPQLLIYKVSNRFSGVPDRFSGSGSGTDFTLKISRVEAEDVGVYYCFQGSHVDLTFGQGTKLEIK
notes: as for B1
For B6, in test [1], the affinity, expressed as Kd, was 47.4 nM; the koff was determined as 0.00142 s⁻¹; the kon amounted to 30100 M⁻¹ s⁻¹. In addition, in test [2], the Kd is < 1.32 nM, the koff was < 1e-05 s⁻¹ and the kon came out at 7580 M⁻¹ s⁻¹.

B7: toripalimab Fab L.V99Y (Fab, V domains shown)
VH: QGQLVQSGAEVKKPGASVKVSCKASGYTFTDYEMHWVRQAPIHGLEWIGVIESETGGTAYNQKFKGRVTITADKSTSTAYMELSSLRSEDTAVYYCAREGITTVATTYYWYFDVWGQGTTVTVSS
VL: DVVMTQSPLSLPVTLGQPASISCRSSQSIVHSNGNTYLEWYLQKPGQSPQLLIYKVSNRFSGVPDRFSGSGSGTDFTLKISRVEAEDVGVYYCFQGSHYPLTFGQGTKLEIK
notes: as for B1
Consider B7, for which, in test [1], binding was characterised by a dissociation constant (Kd) of 576 nM, the off-rate constant (koff) is 0.0369 s⁻¹ and the kon came to 63900 M⁻¹ s⁻¹. In test [2], this molecule gave a Kd of 5.01 nM, a koff of 0.000155 s⁻¹ and a kon of 30900 M⁻¹ s⁻¹.

B8: toripalimab Fab L.P100A (Fab, V domains shown)
VH: QGQLVQSGAEVKKPGASVKVSCKASGYTFTDYEMHWVRQAPIHGLEWIGVIESETGGTAYNQKFKGRVTITADKSTSTAYMELSSLRSEDTAVYYCAREGITTVATTYYWYFDVWGQGTTVTVSS
VL: DVVMTQSPLSLPVTLGQPASISCRSSQSIVHSNGNTYLEWYLQKPGQSPQLLIYKVSNRFSGVPDRFSGSGSGTDFTLKISRVEAEDVGVYYCFQGSHVALTFGQGTKLEIK
notes: as for B1
For the molecule B8, in test [1], the Kd was found to be 89.8 nM, the koff was found to be 0.00349 s⁻¹ and the kon worked out at 38900 M⁻¹ s⁻¹. In test [2], the Kd is < 0.513 nM, the koff was < 1e-05 s⁻¹ and the kon turned out to be 19500 M⁻¹ s⁻¹.

B9: toripalimab Fab L.V99M (Fab, V domains shown)
VH: QGQLVQSGAEVKKPGASVKVSCKASGYTFTDYEMHWVRQAPIHGLEWIGVIESETGGTAYNQKFKGRVTITADKSTSTAYMELSSLRSEDTAVYYCAREGITTVATTYYWYFDVWGQGTTVTVSS
VL: DVVMTQSPLSLPVTLGQPASISCRSSQSIVHSNGNTYLEWYLQKPGQSPQLLIYKVSNRFSGVPDRFSGSGSGTDFTLKISRVEAEDVGVYYCFQGSHMPLTFGQGTKLEIK
notes: as for B1
In test [1], B9 displayed a Kd of 590 nM, a koff of 0.00702 s⁻¹ and a kon of 11900 M⁻¹ s⁻¹. Moreover, in test [2], the Kd stood at 1.43 nM, the koff is 3.17e-05 s⁻¹ and the kon was 22100 M⁻¹ s⁻¹.

B10: toripalimab Fab L.V99S (Fab, V domains shown)
VH: QGQLVQSGAEVKKPGASVKVSCKASGYTFTDYEMHWVRQAPIHGLEWIGVIESETGGTAYNQKFKGRVTITADKSTSTAYMELSSLRSEDTAVYYCAREGITTVATTYYWYFDVWGQGTTVTVSS
VL: DVVMTQSPLSLPVTLGQPASISCRSSQSIVHSNGNTYLEWYLQKPGQSPQLLIYKVSNRFSGVPDRFSGSGSGTDFTLKISRVEAEDVGVYYCFQGSHSPLTFGQGTKLEIK
notes: as for B1
Regarding B10, in test [1], binding was put at a Kd of 4.51 nM, the koff was found to be 6.95e-05 s⁻¹ and the on-rate (kon) was determined as 15400 M⁻¹ s⁻¹. Besides, in test [2], the Kd is < 1.16 nM, the koff was < 1e-05 s⁻¹ and the kon is 8660 M⁻¹ s⁻¹.

B11: toripalimab Fab L.V99Q (Fab, V domains shown)
VH: QGQLVQSGAEVKKPGASVKVSCKASGYTFTDYEMHWVRQAPIHGLEWIGVIESETGGTAYNQKFKGRVTITADKSTSTAYMELSSLRSEDTAVYYCAREGITTVATTYYWYFDVWGQGTTVTVSS
VL: DVVMTQSPLSLPVTLGQPASISCRSSQSIVHSNGNTYLEWYLQKPGQSPQLLIYKVSNRFSGVPDRFSGSGSGTDFTLKISRVEAEDVGVYYCFQGSHQPLTFGQGTKLEIK
notes: as for B1
Consider B11, for which, in test [1], the Kd was 445 nM, the koff is 0.0167 s⁻¹ and the kon amounted to 37600 M⁻¹ s⁻¹. In test [2], this molecule showed a dissociation constant (Kd) of 8.06 nM, a koff of 6.39e-05 s⁻¹ and a kon of 7930 M⁻¹ s⁻¹.

B12: toripalimab Fab L.V99P (Fab, V domains shown)
VH: QGQLVQSGAEVKKPGASVKVSCKASGYTFTDYEMHWVRQAPIHGLEWIGVIESETGGTAYNQKFKGRVTITADKSTSTAYMELSSLRSEDTAVYYCAREGITTVATTYYWYFDVWGQGTTVTVSS
VL: DVVMTQSPLSLPVTLGQPASISCRSSQSIVHSNGNTYLEWYLQKPGQSPQLLIYKVSNRFSGVPDRFSGSGSGTDFTLKISRVEAEDVGVYYCFQGSHPPLTFGQGTKLEIK
notes: as for B1
On to B12, for which, in test [1], binding was characterised by a dissociation constant (Kd) of 24.7 nM, the koff turned out to be 0.0007 s⁻¹ and the kon came to 28300 M⁻¹ s⁻¹. In test [2], this molecule came in with a Kd of 19.8 nM, a dissociation rate constant (koff) of 0.000192 s⁻¹ and a kon of 9660 M⁻¹ s⁻¹.

B13: toripalimab Fab L.P100E (Fab, V domains shown)
VH: QGQLVQSGAEVKKPGASVKVSCKASGYTFTDYEMHWVRQAPIHGLEWIGVIESETGGTAYNQKFKGRVTITADKSTSTAYMELSSLRSEDTAVYYCAREGITTVATTYYWYFDVWGQGTTVTVSS
VL: DVVMTQSPLSLPVTLGQPASISCRSSQSIVHSNGNTYLEWYLQKPGQSPQLLIYKVSNRFSGVPDRFSGSGSGTDFTLKISRVEAEDVGVYYCFQGSHVELTFGQGTKLEIK
notes: as for B1
In test [1], B13 showed a Kd of 19.8 nM, a koff of 0.000491 s⁻¹ and a kon of 24800 M⁻¹ s⁻¹. In test [2], the Kd was < 0.554 nM, the koff was < 1e-05 s⁻¹ and the kon is 18100 M⁻¹ s⁻¹.
